Biological target: T1, SULU1-coiled-coil2 (GST fusion of human SULU1 amino acids 752-898) (human, UniProt Q5R4F3 752-898 (Pongo abelii entry))
T1 construct: Bait made as a C-terminal fusion to GST, expressed in E. coli and immobilised for T7 phage display selection; also called Construct 1; SULU1 Coiled-coil2 bait; not shown: glutathione S-transferase (GST) of the pGEX-4T vector
T1 sequence: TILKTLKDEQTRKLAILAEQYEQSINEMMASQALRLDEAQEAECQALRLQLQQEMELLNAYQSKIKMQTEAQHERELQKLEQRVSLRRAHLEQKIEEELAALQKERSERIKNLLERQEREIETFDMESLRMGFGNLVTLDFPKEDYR
Assay: T7 phage display, H441 cDNA library, immobilised GST-fusion bait
Protocol: Aliquots of refreshed libraries (10^10–10^12 pfu) supplemented with PanMix and a cocktail of […] inhibitors (Sigma P-8465) were incubated for 1–2 hrs at room temperature with the immobilized baits. Unbound phage was extensively washed (at least 4 times) with wash buffer.
Individual plaques were picked into 25 µL of 10 mM EDTA and the phage was disrupted by heating at 70° C. for 10 min. 2 µL of the disrupted phage were added to 50 µL PCR reaction mix. The insert DNA was amplified by 35 rounds of thermal cycling (94° C., 50 sec; 50° C., 1 min; 72° C., 1 min).

B1: GEK2 coiled-coil domain fragment (residues 677-820 of SEQ ID NO:26) displayed on T7 phage (other)
chain: KESMKQKMEEHTQKKQLLDRDFVAKQKEDLELAMKRLTTDNRREICDKERECLMKKQELLRDREAALWEMEEHQLQERHQLVKQQLKDQYFLQRHELLRKHEKEREQMQRYNQRMIEQLKVRQQQEKARLPKIQRSEGKTRMAM
notes: also called GEK2 CC1; GEK2 cc dom; not shown: T7 phage coat protein of the T7Select1-1b vector
- binding result: binds

From US6656716 (SUGEN, dated 2003)
